From paper PMC5472786
Values belong to the substance of their own block, whether it stands above or below them.

Tests used:
[1] = tested on: INO80 complex (Ino80-FLAG) (Saccharomyces cerevisiae S288C); test: EMSA; settings: saturating INO80, 30 C, EMSA: 10 mM Na-HEPES pH 7.8, 4 mM MgCl2, 60 mM NaCl, 0.2 mM EGTA, 0.04 mM EDTA, 8% glycerol, 0.1 ug/uL BSA, 30 min, footprinting and crosslinking at 30 C
[2] = tested on: Ino80 (catalytic subunit within INO80 complex) (Saccharomyces cerevisiae S288C); test: site-specific DNA photocrosslinking; settings: 10 A tether, in INO80 complex, AB-dUMP (10 A) or ABG2-dUMP (18.6 A) at nt -58 from dyad, EMSA: 10 mM Na-HEPES pH 7.8, 4 mM MgCl2, 60 mM NaCl, 0.2 mM EGTA, 0.04 mM EDTA, 8% glycerol, 0.1 ug/uL BSA, 30 C, 30 min, footprinting and crosslinking at 30 C
[3] = molecular target: H2A-containing mono-nucleosome (recombinant Xenopus laevis histone octamer on 601 DNA with 70 bp of extranucleosomal DNA) (Xenopus laevis) (UniProt P06897); test: native gel or EMSA; 70N0 nucleosomes with photoreactive DNA bound with saturating amounts of INO80 at 30 °C; extent of binding assessed on 4% native polyacrylamide gels

Substance: 70N0 nucleosome, photoreactive dUMP at nt -33/-30
- binding signal (% nucleosomes bound) ([1]; photoreactive dUMP at nt -30 to -33 from dyad): > 90

Substance: 70N0 nucleosome, photoreactive dUMP at nt -58
- binding signal (% nucleosomes bound) ([1]; AB-dUMP (10 A) or ABG2-dUMP (18.6 A) at nt -58 from dyad): > 90
- binding signal (fold crosslinking vs no nucleotide) ([2]; ADP): 4
- binding signal (fold crosslinking vs no nucleotide) ([2]; ATPgS): 4

- percent of nucleosomes bound [3]: > 90%
Substance: INO80 complex (from UniProt P53115 1-1489; P80428 1-489; P40154 1-320)
